Laboratory results from patent US20150344570A1 (published 2015).

Legend:
[1] = biological target: T1, FcγRIIIa extracellular domain with C-terminal His tag (human, UniProt P08637 17-208); test: SPR (Biacore), relative binding activity; GpH7-A5/GpH7-B3/GpL16-k0 = 100
[2] = biological target: T1, FcγRIIIa extracellular domain with …; test: SPR (Biacore), one H chain altered; HeCon Ab GpH7-A5/GpH7-B3/GpL16-k0 = 100
FcγRIIIa F = FcγRIIIa F (human, UniProt P08637 17-208); test: SPR (Biacore), KD
FcγRIIIa V = FcγRIIIa V (human, UniProt P08637 17-208); test: SPR (Biacore), KD
Chain of FcγRIIIa V (P08637 17-208): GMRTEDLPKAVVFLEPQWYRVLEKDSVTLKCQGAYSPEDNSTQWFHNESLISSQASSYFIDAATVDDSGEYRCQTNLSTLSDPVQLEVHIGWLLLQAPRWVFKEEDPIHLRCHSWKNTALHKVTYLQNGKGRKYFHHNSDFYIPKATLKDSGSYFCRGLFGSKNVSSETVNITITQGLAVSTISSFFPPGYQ

T1 sequence (P08637 17-208): as above
Chain of FcγRIIIa F (P08637 17-208): as above

| Binder | FcγRIIIa BINDING ACTIVITY [1] [%] | also measured |
| --- | --- | --- |
| GpH7-A5/GpH7-B3-03-20W/GpL16-k0 (antibody, human IgG1, kappa, G236W in the GpH7-B3 chain only; also called He Ab G236_20W; GpH7-A5/GpH7-B3 variant G236_20W/GpL16-k0) heavy 1: not shown heavy 2: not shown light: DIVMTQSPLSLPVTPGEPASISCQASESLVHSNRNTYLHWYLQKPGQSPQLLIYKVSNRFSGVPDRFSGSGSGTDFTLKISRVEAEDVGVYYCSQNTHVPPTFGQGTKVEIERTVAAPSVFIFPPSDEQLKSGTASVVCLLNNFYPREAKVQWKVDNALQSGNSQESVTEQDSKDSTYSLSSTLTLSKADYEKHKVYACEVTHQGLSSPVTKSFNRGEC | 140 | He/Con_3a [2]: 135% |
| GpH7-TA5/GpH7-B3/GpL16-k0 (antibody, human IgG1, kappa, H1 L234Y and S298A) heavy 1: QVQLVQSGAEVKKPGASVTVSCKASGYTFTDYEMHWIRQPPGEGLEWIGAIDPKTGDTAYSESFQDRVTLTADKSTSTAYMELSSLTSEDTAVYYCTRFYSYTYWGQGTLVTVSSASTKGPSVFPLAPSSKSTSGGTAALGCLVKDYFPEPVTVSWNSGALTSGVHTFPAVLQSSGLYSLSSVVTVPSSSLGTQTYICNVNHKPSNTKVDKKVEPKSCDKTHTCPPCPAPEYLGGPSVFLFPPKPKDTLMISRTPEVTCVVVDVSHEDPEVKFNWYVDGVEVHNAKTKPREEQYNATYRVVSVLTVLHQDWLNGKEYKCKVSNKALPAPIEKTISKAKGQPREPQVYTLPPSRKELTKNQVSLTCLVKGFYPSDIAVEWESNGQPENNYKTTPPVLDSDGSFFLYSKLTVDKSRWQQGNVFSCSVMHEALHNRYTQKSLSLSP heavy 2: not shown light: DIVMTQSPLSLPVTPGEPASISCQASESLVHSNRNTYLHWYLQKPGQSPQLLIYKVSNRFSGVPDRFSGSGSGTDFTLKISRVEAEDVGVYYCSQNTHVPPTFGQGTKVEIERTVAAPSVFIFPPSDEQLKSGTASVVCLLNNFYPREAKVQWKVDNALQSGNSQESVTEQDSKDSTYSLSSTLTLSKADYEKHKVYACEVTHQGLSSPVTKSFNRGEC | 208 | – |
| GpH7-TA4/GpH7-B3/GpL16-k0 (antibody, human IgG1, kappa, H1 L234Y and G236W) heavy 1: QVQLVQSGAEVKKPGASVTVSCKASGYTFTDYEMHWIRQPPGEGLEWIGAIDPKTGDTAYSESFQDRVTLTADKSTSTAYMELSSLTSEDTAVYYCTRFYSYTYWGQGTLVTVSSASTKGPSVFPLAPSSKSTSGGTAALGCLVKDYFPEPVTVSWNSGALTSGVHTFPAVLQSSGLYSLSSVVTVPSSSLGTQTYICNVNHKPSNTKVDKKVEPKSCDKTHTCPPCPAPEYLWGPSVFLFPPKPKDTLMISRTPEVTCVVVDVSHEDPEVKFNWYVDGVEVHNAKTKPREEQYNSTYRVVSVLTVLHQDWLNGKEYKCKVSNKALPAPIEKTISKAKGQPREPQVYTLPPSRKELTKNQVSLTCLVKGFYPSDIAVEWESNGQPENNYKTTPPVLDSDGSFFLYSKLTVDKSRWQQGNVFSCSVMHEALHNRYTQKSLSLSP heavy 2: not shown light: DIVMTQSPLSLPVTPGEPASISCQASESLVHSNRNTYLHWYLQKPGQSPQLLIYKVSNRFSGVPDRFSGSGSGTDFTLKISRVEAEDVGVYYCSQNTHVPPTFGQGTKVEIERTVAAPSVFIFPPSDEQLKSGTASVVCLLNNFYPREAKVQWKVDNALQSGNSQESVTEQDSKDSTYSLSSTLTLSKADYEKHKVYACEVTHQGLSSPVTKSFNRGEC | 168 | – |
| GpH7-TA6/GpH7-B3/GpL16-k0 (antibody, human IgG1, kappa, H1 G236W and S298A) heavy 1: QVQLVQSGAEVKKPGASVTVSCKASGYTFTDYEMHWIRQPPGEGLEWIGAIDPKTGDTAYSESFQDRVTLTADKSTSTAYMELSSLTSEDTAVYYCTRFYSYTYWGQGTLVTVSSASTKGPSVFPLAPSSKSTSGGTAALGCLVKDYFPEPVTVSWNSGALTSGVHTFPAVLQSSGLYSLSSVVTVPSSSLGTQTYICNVNHKPSNTKVDKKVEPKSCDKTHTCPPCPAPELLWGPSVFLFPPKPKDTLMISRTPEVTCVVVDVSHEDPEVKFNWYVDGVEVHNAKTKPREEQYNATYRVVSVLTVLHQDWLNGKEYKCKVSNKALPAPIEKTISKAKGQPREPQVYTLPPSRKELTKNQVSLTCLVKGFYPSDIAVEWESNGQPENNYKTTPPVLDSDGSFFLYSKLTVDKSRWQQGNVFSCSVMHEALHNRYTQKSLSLSP heavy 2: not shown light: DIVMTQSPLSLPVTPGEPASISCQASESLVHSNRNTYLHWYLQKPGQSPQLLIYKVSNRFSGVPDRFSGSGSGTDFTLKISRVEAEDVGVYYCSQNTHVPPTFGQGTKVEIERTVAAPSVFIFPPSDEQLKSGTASVVCLLNNFYPREAKVQWKVDNALQSGNSQESVTEQDSKDSTYSLSSTLTLSKADYEKHKVYACEVTHQGLSSPVTKSFNRGEC | 228 | – |
| GpH7-TA3/GpH7-B3-03-20W/GpL16-k0 (antibody, human IgG1, kappa, H1 S298A; H2 G236W) heavy 1: QVQLVQSGAEVKKPGASVTVSCKASGYTFTDYEMHWIRQPPGEGLEWIGAIDPKTGDTAYSESFQDRVTLTADKSTSTAYMELSSLTSEDTAVYYCTRFYSYTYWGQGTLVTVSSASTKGPSVFPLAPSSKSTSGGTAALGCLVKDYFPEPVTVSWNSGALTSGVHTFPAVLQSSGLYSLSSVVTVPSSSLGTQTYICNVNHKPSNTKVDKKVEPKSCDKTHTCPPCPAPELLGGPSVFLFPPKPKDTLMISRTPEVTCVVVDVSHEDPEVKFNWYVDGVEVHNAKTKPREEQYNATYRVVSVLTVLHQDWLNGKEYKCKVSNKALPAPIEKTISKAKGQPREPQVYTLPPSRKELTKNQVSLTCLVKGFYPSDIAVEWESNGQPENNYKTTPPVLDSDGSFFLYSKLTVDKSRWQQGNVFSCSVMHEALHNRYTQKSLSLSP heavy 2: not shown light: DIVMTQSPLSLPVTPGEPASISCQASESLVHSNRNTYLHWYLQKPGQSPQLLIYKVSNRFSGVPDRFSGSGSGTDFTLKISRVEAEDVGVYYCSQNTHVPPTFGQGTKVEIERTVAAPSVFIFPPSDEQLKSGTASVVCLLNNFYPREAKVQWKVDNALQSGNSQESVTEQDSKDSTYSLSSTLTLSKADYEKHKVYACEVTHQGLSSPVTKSFNRGEC | 70 | – |
| GpH7-TA1/GpH7-B3-15-02A/GpL16-k0 (antibody, human IgG1, kappa, H1 L234Y; H2 S298A) heavy 1: QVQLVQSGAEVKKPGASVTVSCKASGYTFTDYEMHWIRQPPGEGLEWIGAIDPKTGDTAYSESFQDRVTLTADKSTSTAYMELSSLTSEDTAVYYCTRFYSYTYWGQGTLVTVSSASTKGPSVFPLAPSSKSTSGGTAALGCLVKDYFPEPVTVSWNSGALTSGVHTFPAVLQSSGLYSLSSVVTVPSSSLGTQTYICNVNHKPSNTKVDKKVEPKSCDKTHTCPPCPAPEYLGGPSVFLFPPKPKDTLMISRTPEVTCVVVDVSHEDPEVKFNWYVDGVEVHNAKTKPREEQYNSTYRVVSVLTVLHQDWLNGKEYKCKVSNKALPAPIEKTISKAKGQPREPQVYTLPPSRKELTKNQVSLTCLVKGFYPSDIAVEWESNGQPENNYKTTPPVLDSDGSFFLYSKLTVDKSRWQQGNVFSCSVMHEALHNRYTQKSLSLSP heavy 2: not shown light: DIVMTQSPLSLPVTPGEPASISCQASESLVHSNRNTYLHWYLQKPGQSPQLLIYKVSNRFSGVPDRFSGSGSGTDFTLKISRVEAEDVGVYYCSQNTHVPPTFGQGTKVEIERTVAAPSVFIFPPSDEQLKSGTASVVCLLNNFYPREAKVQWKVDNALQSGNSQESVTEQDSKDSTYSLSSTLTLSKADYEKHKVYACEVTHQGLSSPVTKSFNRGEC | 142 | – |
| GpH7-A5/GpH7-B3-01-15Y/GpL16-k0 (antibody, human IgG1, kappa, L234Y in the GpH7-B3 chain only; also called He Ab L234_15Y; GpH7-A5/GpH7-B3 variant L234_15Y/GpL16-k0) heavy 1: not shown heavy 2: not shown light: DIVMTQSPLSLPVTPGEPASISCQASESLVHSNRNTYLHWYLQKPGQSPQLLIYKVSNRFSGVPDRFSGSGSGTDFTLKISRVEAEDVGVYYCSQNTHVPPTFGQGTKVEIERTVAAPSVFIFPPSDEQLKSGTASVVCLLNNFYPREAKVQWKVDNALQSGNSQESVTEQDSKDSTYSLSSTLTLSKADYEKHKVYACEVTHQGLSSPVTKSFNRGEC | 131 | He/Con_3a [2]: 130% |
| H240-Kn192/H240-Hl204/L73-k0 (antibody, human IgG1, kappa, Y235N and E294K in H240-Kn120; G236T and I332E in H240-Hl068; also called H240-Kn192/H240-HI204/L73-k0) heavy 1: QDQLVQSGAEVKKPGASVKVSCKASGFNIKDTYIQWVRQAPGQGLEWMGRIDPLRKQTKYREKFEGRVTITADTSTNTAYMELSSLRSEDTAVYYCVRSGREFDYWGQGTLVTVSSASTKGPSVFPLAPSSKSTSGGTAALGCLVKDYFPEPVTVSWNSGALTSGVHTFPAVLQSSGLYSLSSVVTVPSSSLGTQTYICNVNHKPSNTKVDKKVEPKSCDKTHTCPPCPAPEYNWGPMVFLFPPKPKDTLMISRTPEVTCVVVDVSDEDPEVKFNWYVDGVEVHNAKTKPREKQYNATYRVVSVLTVLHQDWLNGKEYKCKVSNKDLPAPIEKTISKAKGQPREPQVCTLPPSRDELTKNQVSLWCLVKGFYPSDIAVEWESNGQPENNYKTTPPVLDSDGSFFLYSKLTVDKSRWQQGNVFSCSVMHEALHNHYTQKSLSLSP heavy 2: QDQLVQSGAEVKKPGASVKVSCKASGFNIKDTYIQWVRQAPGQGLEWMGRIDPLRKQTKYREKFEGRVTITADTSTNTAYMELSSLRSEDTAVYYCVRSGREFDYWGQGTLVTVSSASTKGPSVFPLAPSSKSTSGGTAALGCLVKDYFPEPVTVSWNSGALTSGVHTFPAVLQSSGLYSLSSVVTVPSSSLGTQTYICNVNHKPSNTKVDKKVEPKSCDKTHTCPPCPAPELLTGPSVFLFPPKPKDTLMISRTPEVTCVVVDVSHEEPEVKFNWYVDGVEVHNAKTKPREEQYNSTYRVVSVLTVLHQDWLNGKEYKCKVSNDALPKPEEETISKAKGQPREPQVYTLPPSRCELTKNQVSLSCAVKGFYPSDIAVEWESNGQPENNYKTTPPVLDSDGSFFLVSKLTVDKSRWQQGNVFSCSVMHEALHNHYTQKSLSLSP light: DIQMTQSPSSLSASVGDRVTITCRASQDIHKYIAWYQQKPGQAPRLLIQYTSTLQPGVPSRFSGSGSGTDYTFTISSLQPEDIATYYCLQYEQLRTFGGGTKVEIKRTVAAPSVFIFPPSDEQLKSGTASVVCLLNNFYPREAKVQWKVDNALQSGNSQESVTEQDSKDSTYSLSSTLTLSKADYEKHKVYACEVTHQGLSSPVTKSFNRGEC | – | fold binding against the variant before introduction of I332E and Y235N (FcγRIIIa F): 2 times; fold binding against the variant before introduction of I332E and Y235N (FcγRIIIa V): 8 times |
